Here are results for three molecules from US20220226375A1 (CRISPR THERAPEUTICS, published 2022).

Assay [1] addresses CD33 on the surface of human cells (AML cell lines THP-1, KG-1, MV4-11; activated primary human T cells) (human, UniProt P20138 18-364). In words: cell-based or functional assay.
Assay [2] deals with T1, CD33 protein (AcroBiosystems) conjugated to biotin (UniProt P20138 18-259, biotinylated (site not stated)).
T1 construct: Soluble bought reagent used at 2 ug/uL with streptavidin-APC to label cell-surface anti-CD33 CAR; also called biotinylated CD33 protein, CD3-H82E7
The experiment in a line: flow cytometry; cell-surface CAR on edited T cells labelled with biotinylated CD33 protein and streptavidin-APC. The method, then: About one (1) week post electroporation, gene-edited T cells were analyzed by flow cytometry to assess the percentage of the cell population that expressed an anti-CD33 CAR. Labeling of cell-surface anti-CD33 CAR was done with a combination of a CD33 protein (AcroBiosystems) conjugated to biotin and a streptavidin-APC secondary reagent (FIG. 1A, FIG. 1B and FIG. 1C). […] In contrast, certain T cells generated with a TRAC and B2M gene disruption and a CAR construct did result in a high percentage of the population that expressed an anti-CD33 CAR. […] However, not all T cells prepared with a CAR construct had CAR expression. […] Indeed, this outcome was not altered by switching the CAR co-stimulatory domain (e.g., CTX-964 compared to CTX-964b).

T1 sequence (P20138 18-259 limits assumed): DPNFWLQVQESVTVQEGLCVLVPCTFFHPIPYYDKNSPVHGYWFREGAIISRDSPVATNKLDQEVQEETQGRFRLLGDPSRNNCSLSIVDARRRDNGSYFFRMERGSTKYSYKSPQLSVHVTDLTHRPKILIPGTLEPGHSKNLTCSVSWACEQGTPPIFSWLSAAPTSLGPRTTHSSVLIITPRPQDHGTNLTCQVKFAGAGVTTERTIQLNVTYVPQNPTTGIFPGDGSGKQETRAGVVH
Sequence of CD33 on the surface of human cells (AML cell lines THP-1, KG-1, MV4-11; activated primary human T cells) (P20138 18-364): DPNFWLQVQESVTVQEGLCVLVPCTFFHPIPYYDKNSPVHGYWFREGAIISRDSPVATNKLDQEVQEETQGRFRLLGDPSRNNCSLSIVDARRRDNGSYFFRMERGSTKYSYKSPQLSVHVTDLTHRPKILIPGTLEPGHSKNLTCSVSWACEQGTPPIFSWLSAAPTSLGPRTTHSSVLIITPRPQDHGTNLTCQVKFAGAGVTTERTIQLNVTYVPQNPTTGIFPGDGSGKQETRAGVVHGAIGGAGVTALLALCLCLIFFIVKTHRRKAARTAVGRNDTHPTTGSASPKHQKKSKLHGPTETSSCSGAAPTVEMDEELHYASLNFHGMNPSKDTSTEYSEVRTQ

B1: CTX-982b CAR (anti-CD33 CAR, Antibody C scFv VH-VL, 41BB co-stimulatory domain, CD3z) (other)
chain: EVQLVQSGAEVKKPGSSVKVSCKASGYTITDSNIHWVRQAPGQSLEWIGYIYPYNGGTDYNQKFKNRATLTVDNPTNTAYMELSSLRSEDTAFYYCVNGNPWLAYWGQGTLVTVSSGGGGSGGGGSGGGGSDIQLTQSPSTLSASVGDRVTITCRASESLDNYGIRFLTWFQQKPGKAPKLLMYAASNQGSGVPSRFSGSGSGTEFTLTISSLQPDDFATYYCQQTKEVPWSFGQGTKVEVKSAAAFVPVFLPAKPTTTPAPRPPTPAPTIASQPLSLRPEACRPAAGGAVHTRGLDFACDIYIWAPLAGTCGVLLLSLVITLYCNHRNRKRGRKKLLYIFKQPFMRPVQTTQEEDGCSCRFPEEEEGGCELRVKFSRSADAPAYQQGQNQLYNELNLGRREEYDVLDKRRGRDPEMGGKPRRKNPQEGLYNELQKDKMAEAYSEIGMKGERRRGKGHDGLYQGLSTATKDTYDALHMQALPPR
Regarding B1, in assay [1], the “percent cell lysis of CD33 KO MV4-11 cells (CD33-deficient comparison) at 1:1 ratio” value is above 60%.

B2: CTX-982 CAR (anti-CD33 CAR, Antibody C scFv VH-VL, CD28 co-stimulatory domain, CD3z) (other)
chain: EVQLVQSGAEVKKPGSSVKVSCKASGYTITDSNIHWVRQAPGQSLEWIGYIYPYNGGTDYNQKFKNRATLTVDNPTNTAYMELSSLRSEDTAFYYCVNGNPWLAYWGQGTLVTVSSGGGGSGGGGSGGGGSDIQLTQSPSTLSASVGDRVTITCRASESLDNYGIRFLTWFQQKPGKAPKLLMYAASNQGSGVPSRFSGSGSGTEFTLTISSLQPDDFATYYCQQTKEVPWSFGQGTKVEVKSAAAFVPVFLPAKPTTTPAPRPPTPAPTIASQPLSLRPEACRPAAGGAVHTRGLDFACDIYIWAPLAGTCGVLLLSLVITLYCNHRNRSKRSRLLHSDYMNMTPRRPGPTRKHYQPYAPPRDFAAYRSRVKFSRSADAPAYQQGQNQLYNELNLGRREEYDVLDKRRGRDPEMGGKPRRKNPQEGLYNELQKDKMAEAYSEIGMKGERRRGKGHDGLYQGLSTATKDTYDALHMQALPPR
As to B2, the binding result in assay [2] was “binds”.

B3: CTX-969 CAR (anti-CD33 CAR, Antibody B scFv VH-VL, CD28 co-stimulatory domain, CD3z) (other)
chain: QVQLVQSGAEVKKPGASVKVSCKASGYTFTNYDINWVRQAPGQGLEWIGWIYPGDGSTKYNEKFKAKATLTADTSTSTAYMELRSLRSDDTAVYYCASGYEDAMDYWGQGTTVTVSSGGGGGSGGGGSGGGGSDIQMTQSPSSLSASVGDRVTINCKASQDINSYLSWFQQKPGKAPKTLIYRANRLVDGVPSRFSGSGSGQDYTLTISSLQPEDFATYYCLQYDEFPLTFGGGTKVEIKSAAAFVPVFLPAKPTTTPAPRPPTPAPTIASQPLSLRPEACRPAAGGAVHTRGLDFACDIYIWAPLAGTCGVLLLSLVITLYCNHRNRSKRSRLLHSDYMNMTPRRPGPTRKHYQPYAPPRDFAAYRSRVKFSRSADAPAYQQGQNQLYNELNLGRREEYDVLDKRRGRDPEMGGKPRRKNPQEGLYNELQKDKMAEAYSEIGMKGERRRGKGHDGLYQGLSTATKDTYDALHMQALPPR
Consider B3, for which the binding result in assay [2] is on record as “binds”.
